According to the supplement of paper PMC10567573:

B1: ZNF8 (parent)
chain: RIHTGERPYMCKECGKAFSQNSSL
B2: CLCN6 (parent)
chain: TGLVGLFVDFFVRLFTQLKFGVVQ

Variants of: B1
Assay: protein stability index of a GFP-peptide fusion (GPS, HEK-293T) (PSI 1-6); higher = more stable
Conditions: c terminus: a fixed tail appended
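Also: lentivirally expressed fusions sorted by FACS into six bins by GFP to DsRed ratio, PSI derived from sequencing read proportions per bin multiplied by bin number.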

Variant	protein stability index
RIHTGERPYMCKECGKAFSQNSSP	3.18
RIHTGERPYMCKECGKAFSQNSSR	2.55
RIHTGERPYMCKECGKAFSQNSSC	3.17
RIHTGERPYMCKECGKAFSQNSSQ	3.21
RIHTGERPYMCKECGKAFSQNSSS	3.55
RIHTGERPYMCKECGKAFSQNSSN	3.37
RIHTGERPYMCKECGKAFSQNSSM	2.7
RIHTGERPYMCKECGKAFSQNSSY	2.18
RIHTGERPYMCKECGKAFSQNSSK	3.29
RIHTGERPYMCKECGKAFSQNSSV	2.6
RIHTGERPYMCKECGKAFSQNSSA	2.99
RIHTGERPYMCKECGKAFSQNSSG	2.8
RIHTGERPYMCKECGKAFSQNSSI	2.74
RIHTGERPYMCKECGKAFSQNSSW	2.73
RIHTGERPYMCKECGKAFSQNSSE	3.68
RIHTGERPYMCKECGKAFSQNSSH	3.02
RIHTGERPYMCKECGKAFSQNSST	3.43
RIHTGERPYMCKECGKAFSQNSSD	3.56
RIHTGERPYMCKECGKAFSQNSSF	2.48
RIHTGERPYMCKECGKAFSGNSSL	2.83
RIHTGERPYMCKECGKAFSLNSSL	2.1
RIHTGERPYMCKECGKAFSHNSSL	2.49

Variant	protein stability index
RIHTGERPYMCKECGKAFSFNSSL	1.83
RIHTGERPYMCKECGKAFSWNSSL	2.5
RIHTGERPYMCKECGKAFSVNSSL	1.79
RIHTGERPYMCKECGKAFSENSSL	3.19
RIHTGERPYMCKECGKAFSSNSSL	2.2
RIHTGERPYMCKECGKAFSANSSL	2.65
RIHTGERPYMCKECGKAFSDNSSL	2.37
RIHTGERPYMCKECGKAFSNNSSL	2.72
RIHTGERPYMCKECGKAFSPNSSL	2.74
RIHTGERPYMCKECGKAFSINSSL	2.4
RIHTGERPYMCKECGKAFSTNSSL	2.61
RIHTGERPYMCKECGKAFSMNSSL	2.21
RIHTGERPYMCKECGKAFSRNSSL	2.54
RIHTGERPYMCKECGKAFSKNSSL	2.94
RIHTGERPYMCKECGKAFSYNSSL	2.06
RIHTGERPYMCKECGKAFSCNSSL	2.54
RIHTGERPYMCKECGKAFSQNSML	1.98
RIHTGERPYMCKECGKAFSQNSCL	2.75
RIHTGERPYMCKECGKAFSQNSHL	2.9
RIHTGERPYMCKECGKAFSQNSEL	2.88
RIHTGERPYMCKECGKAFSQNSNL	2.44
RIHTGERPYMCKECGKAFSQNSRL	1.66

Variant	protein stability index
RIHTGERPYMCKECGKAFSQNSKL	3.26
RIHTGERPYMCKECGKAFSQNSWL	1.94
RIHTGERPYMCKECGKAFSQNSFL	1.77
RIHTGERPYMCKECGKAFSQNSLL	1.77
RIHTGERPYMCKECGKAFSQNSPL	2.48
RIHTGERPYMCKECGKAFSQNSIL	2.02
RIHTGERPYMCKECGKAFSQNSAL	2.26
RIHTGERPYMCKECGKAFSQNSQL	2.58
RIHTGERPYMCKECGKAFSQNSYL	2.03
RIHTGERPYMCKECGKAFSQNSVL	2.24
RIHTGERPYMCKECGKAFSQNSTL	2.27
RIHTGERPYMCKECGKAFSQNSGL	2.3
RIHTGERPYMCKECGKAFSQNSDL	2.8
RIHTGERPYMCKECGKAFIQNSSL	2.01
RIHTGERPYMCKECGKAFQQNSSL	2.77
RIHTGERPYMCKECGKAFTQNSSL	2.35
RIHTGERPYMCKECGKAFFQNSSL	2.02
RIHTGERPYMCKECGKAFNQNSSL	2.31
RIHTGERPYMCKECGKAFPQNSSL	1.81
RIHTGERPYMCKECGKAFGQNSSL	2.6
RIHTGERPYMCKECGKAFKQNSSL	2.27
RIHTGERPYMCKECGKAFWQNSSL	1.47

Variant	protein stability index
RIHTGERPYMCKECGKAFLQNSSL	3.17
RIHTGERPYMCKECGKAFVQNSSL	2
RIHTGERPYMCKECGKAFHQNSSL	2.8
RIHTGERPYMCKECGKAFRQNSSL	1.91
RIHTGERPYMCKECGKAFMQNSSL	2.24
RIHTGERPYMCKECGKAFYQNSSL	2.18
RIHTGERPYMCKECGKAFSQNYSL	1.8
RIHTGERPYMCKECGKAFSQNGSL	2.68
RIHTGERPYMCKECGKAFSQNISL	1.91
RIHTGERPYMCKECGKAFSQNLSL	2.05
RIHTGERPYMCKECGKAFSQNFSL	1.89
RIHTGERPYMCKECGKAFSQNKSL	2.4
RIHTGERPYMCKECGKAFSQNVSL	1.9
RIHTGERPYMCKECGKAFSQNHSL	2
RIHTGERPYMCKECGKAFSQNMSL	2.22
RIHTGERPYMCKECGKAFSQNDSL	2.4
RIHTGERPYMCKECGKAFSQNASL	2.49
RIHTGERPYMCKECGKAFSQNTSL	2.34
RIHTGERPYMCKECGKAFSQNPSL	2.6
RIHTGERPYMCKECGKAFSQNRSL	2.19
RIHTGERPYMCKECGKAFSQNNSL	2.37
RIHTGERPYMCKECGKAFSQNCSL	3.07

Variant	protein stability index
RIHTGERPYMCKECGKAFSQNESL	1.98
RIHTGERPYMCKECGKAFSQNWSL	2.22
RIHTGERPYMCKECGKAFSQNQSL	2.58
RIHTGERPYMCKECGKAFSQGSSL	2.71
RIHTGERPYMCKECGKAFSQKSSL	2.75
RIHTGERPYMCKECGKAFSQWSSL	1.7
RIHTGERPYMCKECGKAFSQRSSL	2.26
RIHTGERPYMCKECGKAFSQDSSL	3.08
RIHTGERPYMCKECGKAFSQCSSL	2.46
RIHTGERPYMCKECGKAFSQISSL	2.04
RIHTGERPYMCKECGKAFSQLSSL	1.86
RIHTGERPYMCKECGKAFSQSSSL	2.59
RIHTGERPYMCKECGKAFSQFSSL	1.8
RIHTGERPYMCKECGKAFSQVSSL	1.4
RIHTGERPYMCKECGKAFSQTSSL	2.66
RIHTGERPYMCKECGKAFSQASSL	1.94
RIHTGERPYMCKECGKAFSQESSL	2.65
RIHTGERPYMCKECGKAFSQMSSL	2.17
RIHTGERPYMCKECGKAFSQQSSL	2.48
RIHTGERPYMCKECGKAFSQYSSL	1.5
RIHTGERPYMCKECGKAFSQPSSL	2.44
RIHTGERPYMCKECGKAFSQHSSL	2.4

Variants of: B2
Assay: as above
Conditions: c terminus: a fixed tail appended

Variant	protein stability index
TGLVGLFVDFFVRIFTQLKFGVVQ	2.25
TGLVGLFVDFFVRMFTQLKFGVVQ	2.27
TGLVGLFVDFFVRYFTQLKFGVVQ	2.25
TGLVGLFVDFFVRLFTQLTFGVVQ	2.33
TGLVGLFVDFFVRLFTQLAFGVVQ	2.84
TGLVGLFVDFFVRLFTQLNFGVVQ	2.21
TGLVGLFVDFFVRLFTQLPFGVVQ	1.91
TGLVGLFVDGFVRLFTQLKFGVVQ	1.29
TGLVGLFVDVFVRLFTQLKFGVVQ	2.42
TGLVGLFVDLFVRLFTQLKFGVVQ	1.77
TGLVGLFVDTFVRLFTQLKFGVVQ	2
TGLVGLFVDFFRRLFTQLKFGVVQ	2.04
TGLVGLFVDFFHRLFTQLKFGVVQ	2.09
TGLVGLFVDFFSRLFTQLKFGVVQ	2.45
TGLVGLFVDFFWRLFTQLKFGVVQ	2.95
TGLPGLFVDFFVRLFTQLKFGVVQ	2.05
TGLTGLFVDFFVRLFTQLKFGVVQ	2.38
TGLRGLFVDFFVRLFTQLKFGVVQ	2.19
TGLLGLFVDFFVRLFTQLKFGVVQ	2.33
TGLVGLFVDFFVRLFTQKKFGVVQ	2.02
TGLVGLFVDFFVRLFTQPKFGVVQ	2.63
TGLVGLFVDFFVRLFTQSKFGVVQ	2.03
TGLVGLFVDFFVRLFTQRKFGVVQ	2.74
TGLVGLFVDFFVRLFTQHKFGVVQ	3.39
TGLVGLFVDFFVRLFTQLKFGVDQ	2.41
TGLVGLFVDFFVRLFTQLKFGVAQ	2.27

Variant	protein stability index
TGLVGLFVDFFVRLFTQLKFGVTQ	2.36
TGLVGLFVDFFVRLFTQLKFGVNQ	2
TGLVGLFVDFFVRLFTQLKFGVYQ	2.51
TGLVGLFVDFFVRLFTQLKFGVIQ	2.23
TGLVHLFVDFFVRLFTQLKFGVVQ	2.16
TGLVTLFVDFFVRLFTQLKFGVVQ	1.34
TGLVGLFVDFFVRLPTQLKFGVVQ	2.86
TGLVGLFVDFFVRLGTQLKFGVVQ	2.95
TRLVGLFVDFFVRLFTQLKFGVVQ	2.78
TYLVGLFVDFFVRLFTQLKFGVVQ	2.9
TGLVGLFVDFFVCLFTQLKFGVVQ	2.09
TGLVGLFVDFFVTLFTQLKFGVVQ	2.19
TGLVGLFVDFSVRLFTQLKFGVVQ	1.77
TGLVGLFVDFEVRLFTQLKFGVVQ	2.4
TGLVGLFVDFFVRLFTVLKFGVVQ	2.14
TGLVGLFVDFFVRLFTWLKFGVVQ	3.5
TGLVGLFVDFFVRLFTDLKFGVVQ	1.81
TGLVGLFVDFFVRLFTTLKFGVVQ	2.12
TGKVGLFVDFFVRLFTQLKFGVVQ	3.14
TGCVGLFVDFFVRLFTQLKFGVVQ	2.42
TGQVGLFVDFFVRLFTQLKFGVVQ	1.49
TGHVGLFVDFFVRLFTQLKFGVVQ	2.25
TGLVGLFSDFFVRLFTQLKFGVVQ	1.76
TGLVGLFVDFFVRLFTQLKFKVVQ	3.7
TGLVGLFVDFFVRLFTQLKFDVVQ	2.38
TGLVGLFVDFFVRLFTQLKFNVVQ	2.38

Variant	protein stability index
TGLVGSFVDFFVRLFTQLKFGVVQ	2.99
TGLVGDFVDFFVRLFTQLKFGVVQ	2.33
TGLVGCFVDFFVRLFTQLKFGVVQ	2.69
TGLVGNFVDFFVRLFTQLKFGVVQ	2.76
TGLVGLQVDFFVRLFTQLKFGVVQ	2.03
TGLVGLFVDFFVRLFTQLKFGVVN	2.55
TGLVGLFVDFFVRLFTQLKFGVVT	1.6
TGLVGLFVDFFVRLFTQLKFGVVA	1.66
TGLVGLFVDFFVRLFTQLKFGVVG	2.32
TGLVGLFVDFFVRLFTQLKIGVVQ	2.97
TGLVGLFVDFFVRLFTQLKNGVVQ	3.99
TGLVGLFVDFFVRLFTQLKPGVVQ	2.12
TGLVGLFVDFFVRLFTQLKYGVVQ	2.55
GGLVGLFVDFFVRLFTQLKFGVVQ	2.12
NGLVGLFVDFFVRLFTQLKFGVVQ	1.8
TGLVGLFVDFFVRLFMQLKFGVVQ	2.35
TGLVGLFVDFFVRLFSQLKFGVVQ	2.91
TGLVGLFVDFFVRLFGQLKFGVVQ	2.81
TGLVGLFVDFFVRLFLQLKFGVVQ	2.02
TGLVGLFVDFFVRLFVQLKFGVVQ	1.78
TGLVGLFVAFFVRLFTQLKFGVVQ	1.59
TGLVGLFVMFFVRLFTQLKFGVVQ	1.89
TGLVGLFVDFFVRLFTQLKFGFVQ	2.6
TGLVGLFVDFFVRLFTQLKFGHVQ	1.92
TGLVGLFVDFFVRLFTQLKFGLVQ	2.5
TGLVGLFVDFFVRLFTQLKFGCVQ	1.87
